Results reported in patent publication US20150031617A1, “USE OF THYMOSIN ALPHA FOR TREATMENT OF PURULENT RHINOSINUSITIS” (SCICLONE PHARMACEUTICALS, INC., priority 2012, published 2015).

Assays:
[1] = test system: monocytes and granulocytes of patients with purulent rhinosinusitis; experiment: monocyte and granulocyte polarization in vitro in patients with purulent rhinosinusitis; format: cell-based, human; conditions: 10 patients; thymalfasin, 0.1 mg/ml; FIG. 1
Method: The results in 10 patients were evaluated. The monocyte and granulocyte polarizations in 10 patients were evaluated. Initially, 3 to 4 of the patients started with decreased polarization. […] (See, FIG. 1.) As a control, N-formylmethionyl-leucyl-phenylalanine (fMLP)-induced polarization of healthy donor monocytes. (See, FIG. 2.) Concentrations were TP-1, 1 mg/ml, thymalfasin, 0.1 mg/ml and fMLP, 10^−8M.

[2] = cited from earlier work

(N-acetyl)-Ser-Asp-Ala-Ala-Val-Asp-Thr-Ser-Ser-Glu-Ile-Thr-Thr-Lys-Asp-Leu-Lys-Glu-Lys-Lys-Glu-Val-Val-Glu-Glu-Ala-Glu-Asn-OH (Ac-SDAAVDTSSEITTKDLKEKKEVVEEAEN-OH) [TA1]
monocyte and granulocyte polarization in vitro [1]: worked excellently in improving and restoring the polarization in vitro | Peak plasma levels ([2]; after injection of 3.2 mg of TA1 (about 40 μg/kg)): approximately 100 ng/ml | TA1 circulating in serum ([2]; circulating serum level): 0.1 to 1.0 ng/mL | half-life in the circulation ([2]; in the circulation): about 2 hours
